Source: PMC8231783

Biological target: transient receptor potential (TRP) channels
Experiment: SPR; plasmonic tilted fiber Bragg grating (fiber-optic SPR) probe; TRP immobilised on the 50 nm gold film through 11-mercaptoundecanoic acid and EDC/NHS; CaM (0.1 nM to 10 uM) injected in a microfluidic capillary; 50 mM Tris-HCl, 100 mM NaCl, 1 mM DTT, 1 mM CaCl2, pH 7.5; read-out is the intensity change of a cladding mode

Question: “calmodulin (from UniProt P0DP23 1-149) (natural protein)” was tested. Which intensity change of the selected cladding mode at 1 uM CaM, 30 min did it give?
Answer: 1.7 dB
